In test [1] the target is T1, human CD73 expressed on the cell surface (human, UniProt P21589 27-549).
T1 sequence: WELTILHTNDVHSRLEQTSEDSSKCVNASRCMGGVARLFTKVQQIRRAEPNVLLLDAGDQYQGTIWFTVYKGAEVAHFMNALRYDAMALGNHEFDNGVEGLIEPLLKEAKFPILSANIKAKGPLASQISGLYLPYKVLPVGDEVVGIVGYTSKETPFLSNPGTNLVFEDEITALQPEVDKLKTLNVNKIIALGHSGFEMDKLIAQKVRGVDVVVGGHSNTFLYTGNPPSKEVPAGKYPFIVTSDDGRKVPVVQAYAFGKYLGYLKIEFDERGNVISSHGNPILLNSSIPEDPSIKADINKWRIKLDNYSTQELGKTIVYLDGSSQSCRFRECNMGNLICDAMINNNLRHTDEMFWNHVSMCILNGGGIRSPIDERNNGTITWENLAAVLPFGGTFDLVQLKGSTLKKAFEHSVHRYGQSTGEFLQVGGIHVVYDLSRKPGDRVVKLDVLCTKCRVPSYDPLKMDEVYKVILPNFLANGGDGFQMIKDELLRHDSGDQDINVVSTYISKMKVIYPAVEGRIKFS
As to the kind of experiment: cell-based or functional assay.

In a further test the target is T2, human CD73 antigen (human, UniProt P21589 27-547).
T2 construct: also called Biotinylated Human CD73
T2 sequence (looked up): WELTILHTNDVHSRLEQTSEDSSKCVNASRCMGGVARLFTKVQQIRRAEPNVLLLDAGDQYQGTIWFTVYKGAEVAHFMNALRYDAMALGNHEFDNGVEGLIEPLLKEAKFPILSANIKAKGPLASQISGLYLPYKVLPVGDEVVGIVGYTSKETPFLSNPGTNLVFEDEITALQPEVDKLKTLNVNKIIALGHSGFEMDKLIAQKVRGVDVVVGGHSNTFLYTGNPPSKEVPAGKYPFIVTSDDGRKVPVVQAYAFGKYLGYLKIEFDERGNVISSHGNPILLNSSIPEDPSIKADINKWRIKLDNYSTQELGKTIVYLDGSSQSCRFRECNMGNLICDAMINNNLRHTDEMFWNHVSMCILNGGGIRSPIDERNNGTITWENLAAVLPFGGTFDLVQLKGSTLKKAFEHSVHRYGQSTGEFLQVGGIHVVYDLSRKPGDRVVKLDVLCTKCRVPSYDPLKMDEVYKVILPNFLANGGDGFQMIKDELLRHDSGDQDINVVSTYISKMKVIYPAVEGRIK
As to the kind of experiment: ForteBio BLI; antigen on sensor, 100 nM scFv; monovalent; 1:1 model. (In general: In BLI a coated tip is dipped into the sample, and binding shifts an interference pattern.)

Test [2] deals with T3, cynomolgus monkey CD73 antigen (cynomolgus monkey, UniProt A0A2K5V5U7 27-547).
T3 construct: also called Biotinylated cynomolgus monkey CD73
T3 sequence: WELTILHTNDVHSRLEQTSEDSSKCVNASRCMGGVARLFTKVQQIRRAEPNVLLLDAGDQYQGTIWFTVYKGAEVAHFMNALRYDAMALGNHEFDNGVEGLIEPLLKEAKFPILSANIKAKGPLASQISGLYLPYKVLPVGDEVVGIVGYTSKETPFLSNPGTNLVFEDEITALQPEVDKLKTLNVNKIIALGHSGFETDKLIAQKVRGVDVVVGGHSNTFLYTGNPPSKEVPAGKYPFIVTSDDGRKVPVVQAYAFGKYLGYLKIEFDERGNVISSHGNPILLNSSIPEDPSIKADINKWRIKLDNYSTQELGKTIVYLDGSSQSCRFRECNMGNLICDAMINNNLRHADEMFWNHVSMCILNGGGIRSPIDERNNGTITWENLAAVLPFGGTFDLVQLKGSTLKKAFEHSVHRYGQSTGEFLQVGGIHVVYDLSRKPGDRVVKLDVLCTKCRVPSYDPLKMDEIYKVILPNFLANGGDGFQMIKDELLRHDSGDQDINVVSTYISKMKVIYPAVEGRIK
The test is described as above.
Method: (§1) Human or cynomolgus monkey CD73 antigen protein was loaded on-line to the AHQ sensor (ForteBio) for ForteBio affinity measurement. […] Kinetic analysis was performed by using a 1:1 binding model.

Usually Kd stands for the equilibrium constant for the complex coming apart.

Method for human CD73 antigen: as §1

B1: ADI-37497 (antibody, human IgG4 S228P, kappa, F234A L235A, V domains shown)
VH: EVQLVESGGGLVQPGGSLRLSCAASGFTFDDYFMHWVRQAPGKGLEWVSGISWSSGPIDYADSVKGRFTISRDNAKNSLYLQMNSLRAEDTAVYYCAKGKYLPTGSVDYWGQGTLVTVSS
VL: EIVLTQSPGTLSLSPGERATLSCRASQSVSSSYLAWYQQKPGQAPRLLIYGASSRATGIPDRFSGSGSGTDFTLTISRLEPEDFAVYYCQQYYDYPPITFGGGTKVEIKR
Regarding B1, the “IC50 for inhibiting the enzymatic activity of CD73 (Calu-6 cells)” value in test [1] turned out to be 0.147 µg/mL.

B2: ADI-37496 (antibody, human IgG4 S228P, kappa, F234A L235A, V domains shown)
VH: EVQLVESGGGLVQPGRSLRLSCAASGFTFDDFYMHWVRQAPGKGLEWVSGISWSSTSIDYADSVKGRFTISRDNAKNSLYLQMNSLRAEDTAVYYCAKGKYLPTGSVDYWGQGTLVTVSS
VL: EIVLTQSPGTLSLSPGERATLSCRASQSVSSSYLAWYQQKPGQAPRLLIYGASSRATGIPDRFSGSGSGTDFTLTISRLEPEDFAVYYCQQYYDYPPITFGGGTKVEIKR
On to B2, for which, in test [1], the “IC50 for inhibiting the enzymatic activity of CD73 (Calu-6 cells)” value stood at 0.173 µg/mL.

B3: ADI-37504 (antibody, human IgG4 S228P, kappa, F234A L235A, V domains shown)
VH: EVQLLESGGGLVQPGGSLRLSCAASGFTFHNYAMSWVRQAPGKGLEWVSAISGTGRATYYADSVKGRFTISRDNSKNTLYLQMNSLRAEDTAVYYCARGGPYGSGSYWDTFDYWGQGTLVTVSS
VL: EIVMTQSPATLSVSPGERATLSCRASQSVSSNLAWYQQKPGQAPRLLIYGASTRATGIPARFSGSGSGTEFTLTISSLQSEDFAVYYCQQYTNHYTFGGGTKVEIKR
Take B3: the “IC50 for inhibiting the enzymatic activity of CD73 (Calu-6 cells)” value in test [1] amounted to 0.07 µg/mL.

B4: ADI-37503 (antibody, human IgG4 S228P, kappa, F234A L235A, V domains shown)
VH: EVQLLESGGGLVQPGGSLRLSCAASGFTFSNYAMSWVRQAPGKGLEWVSAISGRASSTYYADSVKGRFTISRDNSKNTLYLQMNSLRAEDTAVYYCARGGPYGSGSYWDTFDYWGQGTLVTVSS
VL: EIVMTQSPATLSVSPGERATLSCRASQSVSSNLAWYQQKPGQAPRLLIYGASTRATGIPARFSGSGSGTEFTLTISSLQSEDFAVYYCQQYTNHYTFGGGTKVEIKR
Regarding B4, the “IC50 for inhibiting the enzymatic activity of CD73 (Calu-6 cells)” value in test [1] worked out at 0.062 µg/mL.

B5: scfv fragment of ADI-37503 (scFv, V domains shown)
VH: EVQLLESGGGLVQPGGSLRLSCAASGFTFSNYAMSWVRQAPGKGLEWVSAISGRASSTYYADSVKGRFTISRDNSKNTLYLQMNSLRAEDTAVYYCARGGPYGSGSYWDTFDYWGQGTLVTVSS
VL: EIVMTQSPATLSVSPGERATLSCRASQSVSSNLAWYQQKPGQAPRLLIYGASTRATGIPARFSGSGSGTEFTLTISSLQSEDFAVYYCQQYTNHYTFGGGTKVEIK
In the case of B5, the dissociation constant (Kd) with human CD73 antigen was determined as 7.95 nM; in test [2] it was 6.61 nM.

B6: ADI-37507 (antibody, human IgG4 S228P, kappa, F234A L235A, V domains shown)
VH: EVQLLESGGGLVQPGGSLRLSCAASGFTFLNYAMAWVRQAPGKGLEWVSAISGRATSTYYADSVKGRFTISRDNSKNTLYLQMNSLRAEDTAVYYCARGGPYGSGSYWDTFDYWGQGTLVTVSS
VL: EIVMTQSPATLSVSPGERATLSCRASQSVSSNLAWYQQKPGQAPRLLIYGASTRATGIPARFSGSGSGTEFTLTISSLQSEDFAVYYCQQYTNHYTFGGGTKVEIKR
B6: in test [1], the “IC50 for inhibiting the enzymatic activity of CD73 (Calu-6 cells)” value is 0.078 µg/mL.

B7: scfv fragment of ADI-37507 (scFv, V domains shown)
VH: EVQLLESGGGLVQPGGSLRLSCAASGFTFLNYAMAWVRQAPGKGLEWVSAISGRATSTYYADSVKGRFTISRDNSKNTLYLQMNSLRAEDTAVYYCARGGPYGSGSYWDTFDYWGQGTLVTVSS
VL: EIVMTQSPATLSVSPGERATLSCRASQSVSSNLAWYQQKPGQAPRLLIYGASTRATGIPARFSGSGSGTEFTLTISSLQSEDFAVYYCQQYTNHYTFGGGTKVEIK
As to B7, the Kd with human CD73 antigen is 9.21 nM; in test [2] it was 23.7 nM.

B8: scfv fragment of ADI-37506 (scFv, V domains shown)
VH: EVQLLESGGGLVQPGGSLRLSCAASGFTFSNLAMSWVRQAPGKGLEWVSAISGRATSTYYADSVKGRFTISRDNSKNTLYLQMNSLRAEDTAVYYCARGGPYGSGSYWDTFDYWGQGTLVTVSS
VL: EIVMTQSPATLSVSPGERATLSCRASQSVSSNLAWYQQKPGQAPRLLIYGASTRATGIPARFSGSGSGTEFTLTISSLQSEDFAVYYCQQYTNHYTFGGGTKVEIK
B8: the dissociation constant (Kd) with human CD73 antigen is 5.41 nM; in test [2], 4.77 nM.

B9: scfv fragment of ADI-37504 (scFv, V domains shown)
VH: EVQLLESGGGLVQPGGSLRLSCAASGFTFHNYAMSWVRQAPGKGLEWVSAISGTGRATYYADSVKGRFTISRDNSKNTLYLQMNSLRAEDTAVYYCARGGPYGSGSYWDTFDYWGQGTLVTVSS
VL: EIVMTQSPATLSVSPGERATLSCRASQSVSSNLAWYQQKPGQAPRLLIYGASTRATGIPARFSGSGSGTEFTLTISSLQSEDFAVYYCQQYTNHYTFGGGTKVEIK
On to B9, for which the Kd turned out to be 15.4 nM with human CD73 antigen and 20.2 nM in test [2].

B10: scfv fragment of ADI-37505 (scFv, V domains shown)
VH: QVQLVESGGGLVQPGGSLRLSCAASGFTFSNYAMTWVRQAPGKGLEWVSAISGRGTATYYADSVKGRFTISRDNSKNTLYLQMNSLRAEDTAVYYCARGGPYGSGSYWDTFDYWGQGTLVTVSS
VL: EIVMTQSPATLSVSPGERATLSCRASQSVSSNLAWYQQKPGQAPRLLIYGASTRATGIPARFSGSGSGTEFTLTISSLQSEDFAVYYCQQYTNHYTFGGGTKVEIK
As to B10, the dissociation constant (Kd) was 5.56 nM with human CD73 antigen and 5.34 nM in test [2].

B11: ADI-37542 (antibody, human IgG4 S228P, kappa, F234A L235A, V domains shown)
VH: QVQLQESGPGLVKPSETLSLTCAVSGYSISEGYYWGWIRQPPGKGLEWIGSIYHTGFTYYNPSLKSRVTISVDTSKNQFSLKLSSVTAADTAVYYCARASIYTPPPEYFQHWGQGTLVTVSS
VL: DIQMTQSPSTLSASVGDRVTITCRASQSISSWLAWYQQKPGKAPKLLIYDASSLESGVPSRFSGSGSGTEFTLTISSLQPDDFATYYCQQSRIYSTFGGGTKVEIKR
In the case of B11, the “IC50 for inhibiting the enzymatic activity of CD73 (Calu-6 cells)” value in test [1] was determined as 0.189 µg/mL.

B12: ADI-37543 (antibody, human IgG4 S228P, kappa, F234A L235A, V domains shown)
VH: QVQLQESGPGLVKPSETLSLTCAVSGYSISSGYYWAWIRQPPGKGLEWIGSIFHSGFTFYNPSLKSRVTISVDTSKNQFSLKLSSVTAADTAVYYCARASIYTPPPEYFQHWGQGTLVTVSS
VL: DIQMTQSPSTLSASVGDRVTITCRASQSISSWLAWYQQKPGKAPKLLIYDASSLESGVPSRFSGSGSGTEFTLTISSLQPDDFATYYCQQSRIYSTFGGGTKVEIKR
Regarding B12, in test [1], the “IC50 for inhibiting the enzymatic activity of CD73 (Calu-6 cells)” value was 0.196 µg/mL.

B13: ADI-37513 (antibody, human IgG4 S228P, kappa, F234A L235A, V domains shown)
VH: EVQLLESGGGVVQPGRSLRLSCAASGFTFNFYGMHWVRQAPGKGLEWVAVINDEGINKYYADSVKGRFTISRDNSKNTLYLQMNSLRAEDTAVYYCARGGARYPIAFDIWGQGTMVTVSS
VL: DIQLTQSPSSVSASVGDRVTITCRASQDISSWLAWYQQKPGKAPKLLIYAASSLQSGVPSRFSGSGSGTDFTLTISSLQPEDFATYYCQQANDFPITFGGGTKVEIKR
With B13, the “IC50 for inhibiting the enzymatic activity of CD73 (Calu-6 cells)” value in test [1] was 0.143 µg/mL.

B14: ADI-37522 (antibody, human IgG4 S228P, kappa, F234A L235A, V domains shown)
VH: QVQLVESGGGVVQPGRSLRLSCAASGFTFSHYGMHWVRQAPGKGLEWVAVISDEGSNKYYADSVKGRFTISRDNSKNTLYLQMNSLRAEDTAVYYCARGWLRYPIAFDIWGQGTMVTVSS
VL: DIQLTQSPSSVSASVGDRVTITCRASQDISSWLAWYQQKPGKAPKLLIYAASSLQSGVPSRFSGSGSGTDFTLTISSLQPEDFATYYCQQANDFPITFGGGTKVEIKR
For the molecule B14, in test [1], the “IC50 for inhibiting the enzymatic activity of CD73 (Calu-6 cells)” value stood at 0.146 µg/mL.

B15: ADI-37532 (antibody, human IgG4 S228P, kappa, F234A L235A, V domains shown)
VH: QVQLVESGGGVVQPGRSLRLSCAASGFTFSSYSMHWVRQAPGKGLEWVAHIVEGSDKYYADSVKGRFTISRDNSKNTLYLQMNSLRAEDTAVYYCARSRYDWSLFDIWGQGTMVTVSS
VL: EIVLTQSPGTLSLSPGERATLSCGASQSVSSSYLAWYQQKPGQAPRLLIYGASSRATGIPDRFSGSGSGTDFTLTISRLEPEDFAVYYCQQYVLYPFTFGGGTKVEIKR
As to B15, the “IC50 for inhibiting the enzymatic activity of CD73 (Calu-6 cells)” value in test [1] was 0.114 µg/mL.

The values are drawn from US20230312741A1 (published 2023).
